Data taken from patent publication US20240270846A1 (published 2024).

Target: T1, CD3 epsilon homodimer protein (UniProt P07766 23-126)
T1 construct: Immobilized on Sensor chip CM4 by amine coupling; construct not described; also called CD3 (CD3 epsilon)
Test: SPR Biacore T200, CD3 epsilon homodimer on CM4 chip, antibody as analyte;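 note: Amine-coupled CD3 epsilon homodimer, run at 25 °C in HBS-EP+ buffer, ratio is bound amount of each single-residue H chain variant over that of the parent antibody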

T1 sequence (P07766 23-126): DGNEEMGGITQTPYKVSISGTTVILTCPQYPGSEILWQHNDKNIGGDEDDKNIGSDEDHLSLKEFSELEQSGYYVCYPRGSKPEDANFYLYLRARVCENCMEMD

| Binder | ratio of amounts bound (Y/X vs CE115HA000) |
| --- | --- |
| CE115HA000 Y100D one-arm antibody (antibody, human IgG1, kappa, L234A L235A, N297A, name in Kabat numbering, one-arm antibody (one Fab)) heavy: QVQLVESGGGVVQPGRSLRLSCAASGFTFSNAWMHWVRQAPGKGLEWVAQIKAKSNNYATYYAESVKGRFTISRDDSKNSLYLQMNSLKTEDTAVYYCRYVHYGADYGVDAWGQGTTVTVSSASTKGPSVFPLAPSSKSTSGGTAALGCLVKDYFPEPVTVSWNSGALTSGVHTFPAVLQSSGLYSLSSVVTVPSSSLGTQTYICNVNHKPSNTKVDKKVEPKSCDKTHTCPPCPAPEAAGGPSVFLFPPKPKDTLMISRTPEVTCVVVDVSHEDPEVKFNWYVDGVEVHNAKTKPREEQYASTYRVVSVLTVLHQDWLNGKEYKCKVSNKALPAPIEKTISKAKGQPREPQVYTLPPSRCELTKNQVSLSCAVKGFYPSDIAVEWESNGQPENNYKTTPPVLDSDGSFFLVSKLTVDKSRWQQGNVFSCSVMHEALHNHYTQKSLSLSPDYKDDDDK EPKSSDKTHTCPPCPAPELLGGPSVFLFPPKPKDTLMISRTPEVTCVVVDVSHEDPEVKFNWYVDGVEVHNAKTKPREEQYNSTYRVVSVLTVLHQDWLNGKEYKCKVSNKALPAPIEKTISKAKGQPREPQVCTLPPSRDELTKNQVSLWCLVKGFYPSDIAVEWESNGQPENNYKTTPPVLDSDGSFFLYSKLTVDKSRWQQGNVFSCSVMHEALHNRYTQKSLSLSP light: DIVMTQSPLSLPVTPGEPASISCRSSQSLVHSNRNTYLHWYQQKPGQAPRLLIYKVSNRFSGVPDRFSGSGSGTDFTLKISRVEAEDVGVYYCGQGTQVPYTFGQGTKLEIKRTVAAPSVFIFPPSDEQLKSGTASVVCLLNNFYPREAKVQWKVDNALQSGNSQESVTEQDSKDSTYSLSSTLTLSKADYEKHKVYACEVTHQGLSSPVTKSFNRGEC | 0.52 |
| CE115HA000 Y100G one-arm antibody (antibody, human IgG1, kappa, L234A L235A, N297A, name in Kabat numbering, one-arm antibody (one Fab)) heavy: QVQLVESGGGVVQPGRSLRLSCAASGFTFSNAWMHWVRQAPGKGLEWVAQIKAKSNNYATYYAESVKGRFTISRDDSKNSLYLQMNSLKTEDTAVYYCRYVHYGAGYGVDAWGQGTTVTVSSASTKGPSVFPLAPSSKSTSGGTAALGCLVKDYFPEPVTVSWNSGALTSGVHTFPAVLQSSGLYSLSSVVTVPSSSLGTQTYICNVNHKPSNTKVDKKVEPKSCDKTHTCPPCPAPEAAGGPSVFLFPPKPKDTLMISRTPEVTCVVVDVSHEDPEVKFNWYVDGVEVHNAKTKPREEQYASTYRVVSVLTVLHQDWLNGKEYKCKVSNKALPAPIEKTISKAKGQPREPQVYTLPPSRCELTKNQVSLSCAVKGFYPSDIAVEWESNGQPENNYKTTPPVLDSDGSFFLVSKLTVDKSRWQQGNVFSCSVMHEALHNHYTQKSLSLSPDYKDDDDK EPKSSDKTHTCPPCPAPELLGGPSVFLFPPKPKDTLMISRTPEVTCVVVDVSHEDPEVKFNWYVDGVEVHNAKTKPREEQYNSTYRVVSVLTVLHQDWLNGKEYKCKVSNKALPAPIEKTISKAKGQPREPQVCTLPPSRDELTKNQVSLWCLVKGFYPSDIAVEWESNGQPENNYKTTPPVLDSDGSFFLYSKLTVDKSRWQQGNVFSCSVMHEALHNRYTQKSLSLSP light: DIVMTQSPLSLPVTPGEPASISCRSSQSLVHSNRNTYLHWYQQKPGQAPRLLIYKVSNRFSGVPDRFSGSGSGTDFTLKISRVEAEDVGVYYCGQGTQVPYTFGQGTKLEIKRTVAAPSVFIFPPSDEQLKSGTASVVCLLNNFYPREAKVQWKVDNALQSGNSQESVTEQDSKDSTYSLSSTLTLSKADYEKHKVYACEVTHQGLSSPVTKSFNRGEC | 1.07 |
| CE115HA000 Y100K one-arm antibody (antibody, human IgG1, kappa, L234A L235A, N297A, name in Kabat numbering, one-arm antibody (one Fab)) heavy: QVQLVESGGGVVQPGRSLRLSCAASGFTFSNAWMHWVRQAPGKGLEWVAQIKAKSNNYATYYAESVKGRFTISRDDSKNSLYLQMNSLKTEDTAVYYCRYVHYGAKYGVDAWGQGTTVTVSSASTKGPSVFPLAPSSKSTSGGTAALGCLVKDYFPEPVTVSWNSGALTSGVHTFPAVLQSSGLYSLSSVVTVPSSSLGTQTYICNVNHKPSNTKVDKKVEPKSCDKTHTCPPCPAPEAAGGPSVFLFPPKPKDTLMISRTPEVTCVVVDVSHEDPEVKFNWYVDGVEVHNAKTKPREEQYASTYRVVSVLTVLHQDWLNGKEYKCKVSNKALPAPIEKTISKAKGQPREPQVYTLPPSRCELTKNQVSLSCAVKGFYPSDIAVEWESNGQPENNYKTTPPVLDSDGSFFLVSKLTVDKSRWQQGNVFSCSVMHEALHNHYTQKSLSLSPDYKDDDDK EPKSSDKTHTCPPCPAPELLGGPSVFLFPPKPKDTLMISRTPEVTCVVVDVSHEDPEVKFNWYVDGVEVHNAKTKPREEQYNSTYRVVSVLTVLHQDWLNGKEYKCKVSNKALPAPIEKTISKAKGQPREPQVCTLPPSRDELTKNQVSLWCLVKGFYPSDIAVEWESNGQPENNYKTTPPVLDSDGSFFLYSKLTVDKSRWQQGNVFSCSVMHEALHNRYTQKSLSLSP light: DIVMTQSPLSLPVTPGEPASISCRSSQSLVHSNRNTYLHWYQQKPGQAPRLLIYKVSNRFSGVPDRFSGSGSGTDFTLKISRVEAEDVGVYYCGQGTQVPYTFGQGTKLEIKRTVAAPSVFIFPPSDEQLKSGTASVVCLLNNFYPREAKVQWKVDNALQSGNSQESVTEQDSKDSTYSLSSTLTLSKADYEKHKVYACEVTHQGLSSPVTKSFNRGEC | 1.07 |
| CE115HA000 Y100P one-arm antibody (antibody, human IgG1, kappa, L234A L235A, N297A, name in Kabat numbering, one-arm antibody (one Fab)) heavy: QVQLVESGGGVVQPGRSLRLSCAASGFTFSNAWMHWVRQAPGKGLEWVAQIKAKSNNYATYYAESVKGRFTISRDDSKNSLYLQMNSLKTEDTAVYYCRYVHYGAPYGVDAWGQGTTVTVSSASTKGPSVFPLAPSSKSTSGGTAALGCLVKDYFPEPVTVSWNSGALTSGVHTFPAVLQSSGLYSLSSVVTVPSSSLGTQTYICNVNHKPSNTKVDKKVEPKSCDKTHTCPPCPAPEAAGGPSVFLFPPKPKDTLMISRTPEVTCVVVDVSHEDPEVKFNWYVDGVEVHNAKTKPREEQYASTYRVVSVLTVLHQDWLNGKEYKCKVSNKALPAPIEKTISKAKGQPREPQVYTLPPSRCELTKNQVSLSCAVKGFYPSDIAVEWESNGQPENNYKTTPPVLDSDGSFFLVSKLTVDKSRWQQGNVFSCSVMHEALHNHYTQKSLSLSPDYKDDDDK EPKSSDKTHTCPPCPAPELLGGPSVFLFPPKPKDTLMISRTPEVTCVVVDVSHEDPEVKFNWYVDGVEVHNAKTKPREEQYNSTYRVVSVLTVLHQDWLNGKEYKCKVSNKALPAPIEKTISKAKGQPREPQVCTLPPSRDELTKNQVSLWCLVKGFYPSDIAVEWESNGQPENNYKTTPPVLDSDGSFFLYSKLTVDKSRWQQGNVFSCSVMHEALHNRYTQKSLSLSP light: DIVMTQSPLSLPVTPGEPASISCRSSQSLVHSNRNTYLHWYQQKPGQAPRLLIYKVSNRFSGVPDRFSGSGSGTDFTLKISRVEAEDVGVYYCGQGTQVPYTFGQGTKLEIKRTVAAPSVFIFPPSDEQLKSGTASVVCLLNNFYPREAKVQWKVDNALQSGNSQESVTEQDSKDSTYSLSSTLTLSKADYEKHKVYACEVTHQGLSSPVTKSFNRGEC | 0.48 |
| CE115HA000 Y100Q one-arm antibody (antibody, human IgG1, kappa, L234A L235A, N297A, name in Kabat numbering, one-arm antibody (one Fab)) heavy: QVQLVESGGGVVQPGRSLRLSCAASGFTFSNAWMHWVRQAPGKGLEWVAQIKAKSNNYATYYAESVKGRFTISRDDSKNSLYLQMNSLKTEDTAVYYCRYVHYGAQYGVDAWGQGTTVTVSSASTKGPSVFPLAPSSKSTSGGTAALGCLVKDYFPEPVTVSWNSGALTSGVHTFPAVLQSSGLYSLSSVVTVPSSSLGTQTYICNVNHKPSNTKVDKKVEPKSCDKTHTCPPCPAPEAAGGPSVFLFPPKPKDTLMISRTPEVTCVVVDVSHEDPEVKFNWYVDGVEVHNAKTKPREEQYASTYRVVSVLTVLHQDWLNGKEYKCKVSNKALPAPIEKTISKAKGQPREPQVYTLPPSRCELTKNQVSLSCAVKGFYPSDIAVEWESNGQPENNYKTTPPVLDSDGSFFLVSKLTVDKSRWQQGNVFSCSVMHEALHNHYTQKSLSLSPDYKDDDDK EPKSSDKTHTCPPCPAPELLGGPSVFLFPPKPKDTLMISRTPEVTCVVVDVSHEDPEVKFNWYVDGVEVHNAKTKPREEQYNSTYRVVSVLTVLHQDWLNGKEYKCKVSNKALPAPIEKTISKAKGQPREPQVCTLPPSRDELTKNQVSLWCLVKGFYPSDIAVEWESNGQPENNYKTTPPVLDSDGSFFLYSKLTVDKSRWQQGNVFSCSVMHEALHNRYTQKSLSLSP light: DIVMTQSPLSLPVTPGEPASISCRSSQSLVHSNRNTYLHWYQQKPGQAPRLLIYKVSNRFSGVPDRFSGSGSGTDFTLKISRVEAEDVGVYYCGQGTQVPYTFGQGTKLEIKRTVAAPSVFIFPPSDEQLKSGTASVVCLLNNFYPREAKVQWKVDNALQSGNSQESVTEQDSKDSTYSLSSTLTLSKADYEKHKVYACEVTHQGLSSPVTKSFNRGEC | 0.8 |
| CE115HA000 Y100L one-arm antibody (antibody, human IgG1, kappa, L234A L235A, N297A, name in Kabat numbering, one-arm antibody (one Fab)) heavy: QVQLVESGGGVVQPGRSLRLSCAASGFTFSNAWMHWVRQAPGKGLEWVAQIKAKSNNYATYYAESVKGRFTISRDDSKNSLYLQMNSLKTEDTAVYYCRYVHYGALYGVDAWGQGTTVTVSSASTKGPSVFPLAPSSKSTSGGTAALGCLVKDYFPEPVTVSWNSGALTSGVHTFPAVLQSSGLYSLSSVVTVPSSSLGTQTYICNVNHKPSNTKVDKKVEPKSCDKTHTCPPCPAPEAAGGPSVFLFPPKPKDTLMISRTPEVTCVVVDVSHEDPEVKFNWYVDGVEVHNAKTKPREEQYASTYRVVSVLTVLHQDWLNGKEYKCKVSNKALPAPIEKTISKAKGQPREPQVYTLPPSRCELTKNQVSLSCAVKGFYPSDIAVEWESNGQPENNYKTTPPVLDSDGSFFLVSKLTVDKSRWQQGNVFSCSVMHEALHNHYTQKSLSLSPDYKDDDDK EPKSSDKTHTCPPCPAPELLGGPSVFLFPPKPKDTLMISRTPEVTCVVVDVSHEDPEVKFNWYVDGVEVHNAKTKPREEQYNSTYRVVSVLTVLHQDWLNGKEYKCKVSNKALPAPIEKTISKAKGQPREPQVCTLPPSRDELTKNQVSLWCLVKGFYPSDIAVEWESNGQPENNYKTTPPVLDSDGSFFLYSKLTVDKSRWQQGNVFSCSVMHEALHNRYTQKSLSLSP light: DIVMTQSPLSLPVTPGEPASISCRSSQSLVHSNRNTYLHWYQQKPGQAPRLLIYKVSNRFSGVPDRFSGSGSGTDFTLKISRVEAEDVGVYYCGQGTQVPYTFGQGTKLEIKRTVAAPSVFIFPPSDEQLKSGTASVVCLLNNFYPREAKVQWKVDNALQSGNSQESVTEQDSKDSTYSLSSTLTLSKADYEKHKVYACEVTHQGLSSPVTKSFNRGEC | 0.7 |
